Target: T1, GlxR (Cg-GlxR) (Corynebacterium glutamicum, UniProt Q79VI7 1-227)
T1 sequence: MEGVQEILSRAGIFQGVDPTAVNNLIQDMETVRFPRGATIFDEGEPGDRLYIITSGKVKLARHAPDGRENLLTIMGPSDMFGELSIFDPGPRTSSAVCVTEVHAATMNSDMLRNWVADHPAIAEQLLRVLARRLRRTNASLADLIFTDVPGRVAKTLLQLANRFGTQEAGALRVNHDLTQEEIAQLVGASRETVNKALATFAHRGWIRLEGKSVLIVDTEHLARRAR
Assay: fluorescence anisotropy; 1.5 mM cAMP; 100 mM KH2PO4 pH 7.8, 200 mM KCl, 1 mM 1-thioglycerol, 0 or 1.5 mM cAMP, 5 nM labelled DNA; temperature not stated
Conditions: protein: recombinant; tags: His6 (N-terminal, pET16b); chain copies: 2; label: 5'-FITC on strand 1; blunt

B1: FITC-labelled 26-mer duplex (dsDNA)
DNA 1: ATTAATGTGAGTTAGCTCACTCATTA
DNA 2: TAATGAGTGAGCTAACTCACATTAAT
- Kd: 87 nM

Source: article PMC4254451, “The Crystal Structures of Apo and cAMP-Bound GlxR from Corynebacterium glutamicum Reveal Structural and Dynamic Changes upon cAMP Binding in CRP/FNR Family Transcription Factors”
